Measurements taken from paper PMC2132843 (The Journal of Cell Biology, 1998).

B1: Kel1-AD (natural protein, S. cerevisiae, UniProt P38853 1-1164, looked up)
chain: MAGFSFAKKFTHKKHGKTPSDASISDQSREASLSTPPNEKFFTKQETPQKGRQFSQGYHSNVNKTSSPPMFARKQVSESRIQPSAVPPQQRNVSGPSTTLHKQLSKQREYTVWNRIKLQNSPFPRYRHVASAYVTDKNQIYVIGGLHDQSVYGDTWILTAFDNATRFSTTTIDISEATPPPRVGHAAVLCGNAFVVFGGDTHKVNKEGLMDDDIYLLNINSYKWTVPAPVGPRPLGRYGHKISIIATTQMKTKLYVFGGQFDDTYFNDLAVYDLSSFRRPDSHWEFLKPRTFTPPPITNFTMISYDSKLWVFGGDTLQGLVNDVFMYDPAINDWFIIDTTGEKPPPVQEHATVVYNDLMCVVGGKDEHDAYLNSVYFLNLKSRKWFKLPVFTAGIPQGRSGHSLTLLKNDKILIMGGDKFDYARVEEYDLHTSDIDMQRGTIVYTLDLARIKDLCPGVMDVPTDTPTPRNGNLDLATPVTPTSHQTKNMNVPISAAPLASAPSPAPKDFSDADRLNREVHNRNVSTEHQNQSHPVNSESHLIAEPNILTPYVPSESSQTPVMKITSNKPFDTPTIQKEPDLSETMDPTVGNQRIPSSIYGDNLTPANQIKNNSPILETLPSNEIKTPQNGNIEEIKHLPDADEKIDSTTTFDQEINGDKLGTSSMSKVEEDGNVADEDDEIGVAQMASSPSKDQFKIKHYNESSELSQNNTEIDKLSEPVDITIKKSDTAGHDSANHVIDASDEKNVSPMGDVPTDTKNEEASVPINRDATTEVVDRALFEKLRSELQSLKELTHEKALEAGAHIKELETELWQLKSQKNSGTTKEIDELDSVRLQSKCEILEADNHSLEDKVNELEELVNSKFLDIENLNEVIQFQNEKIKSLELEPNYKEKLEELQIEHENLSRENERLKNESKQHNEDIINNVANYSSQLGSLISHWKENRANSSFLESSSSLISVSDENGEKTVGEPYGDQSRHHRVVINKLTNRLDDLLERSQELTISKEKLSSEYHALKMEHSSLSQDVLVKENEIKKIQNDYKESISSMDSASKALMVSQRELEKYKSLNKKLIDELDELKFKNGVCSENFENGLRSTEESSNNVKNSNSIRENQFNIKINDLKAELFITNQERDDLKSEVLELKKRLLNLENNTKQVNEDADSDLL
B2: Kel2-DBD (natural protein, S. cerevisiae, UniProt P50090 1-882, looked up)
chain: MVPFKLTNKVPTDTGPSLISAQSVPRPIVFMDNRNNTRIVTPTLPPNQHRGISGASTALPWSPESKNTGKYIWNRVKLKNSPFPRYRHSSSFIVTNDNRIFVTGGLHDQSVYGDVWQIAANADGTSFTSKRIDIDQNTPPPRVGHASTICGNAYVVFGGDTHKLNKNGLLDDDLYLFNINSYKWTIPQPIGRRPLGRYGHKISIIASNPMQTKLYLFGGQVDETYFNDLVVFDLSSFRRPNSHWEFLEPVGDLPPPLTNHTMVAYDNKLWVFGGETPKTISNDTYRYDPAQSEWSKVKTTGEKPPPIQEHASVVYKHLMCVLGGKDTHNAYSNDVYFLNLLSLKWYKLPRMKEGIPQERSGHSLTLMKNEKLLIMGGDKTDYASPNIHDLQTSETDQGEGTLLYTLDLSSLNELCPGIMCESLHAGESFSNSLSGGFTPSKSTESENQEIINILTPRLPDSKVLSYNDIDEGAGSYSSALDDKAFERKSDREEKKPQSSKVDSSINKESPGTGIKVSKKNFPVLRGLTVDSEEYGSSSYKDTSCQKGIPKNLFDDLNLNLQTLRLEAQQKELETARHISQLEKEVQRLMVIKEASKDSNFQTARLKNLEIQKTFLESRINDLKNLLMVKLSQASKLCDQITIQNNGLKTCSEHVTIKRDIIDLENKCDVLKRQNEILVNNMQKITPELHTYLNESSCYLGKLLKSYPTSARPPSSEKDNQIYEKDSLNKIEKVINEMHETVRAKEKLHLETQKLNDERDSLRANLLDNNNKLDALRKLSDGSSKSMDLTKKAIHLSQSELEKYRKNNDDLQKEIDRIKTEQAEQDDKQEQRGAITHGNFDAFHRMKINNLKAELYMSKENRDSLKDELLALKKKLYTLEQKK

Assays:
[1] = target: B2; assay: two-hybrid
[2] = target: the molecule itself; assay: two-hybrid

fold increase of β-galactosidase activity against Kel1-AD or Kel2-DBD alone [1]	Binder	interaction relative to that of Kel1p-AD with Kel2-DBD [2]
> 100 fold	B1	
	B2	~10%
